Data on six molecules can be found in paper PMC8609364, “A Selective Tether Recruits Activated Response Regulator CheB to Its Chemoreceptor Substrate” (mBio, 2021).

Assay [1] addresses unphosphorylated CheB. The following applies: isothermal titration calorimetry, free pentapeptide, ref [21], read-out: equilibrium dissociation constant; cited from earlier work. On the procedure:
We measured binding of the low-activity, unphosphorylated form of CheB to the NWETF pentapeptide tethered to the sensor surface via a linker or in its native position at the carboxyl terminus of Tar4E or Tar4Q ([23]). Equilibrium dissociation constants were essentially the same for all conditions, 190 ± 85 μM for pentapeptide alone, and 230 ± 70 and 160 ± 30 for the pentapeptide on Tar4E or Tar4Q, respectively (Table 1). Within the error of the measurements, these values corresponded to those previously determined for free pentapeptide binding to unphosphorylated CheB by isothermal titration c ...
On the technique in general: Isothermal titration calorimetry measures the heat released or taken up as one component is titrated into another.

The target in assay [2] is CheB. The experiment in a line: Binding of CheB to NWETF pentapeptide tethered to the sensor surface via a linker (biolayer interferometry). Also noted: species or system E. coli. The following applies: BLI, low-activity, unphosphorylated CheB, read-out: Equilibrium dissociation constant, pentapeptide alone. On the procedure: We measured binding of the low-activity, unphosphorylated form of CheB to the NWETF pentapeptide tethered to the sensor surface via a linker or in its native position at the carboxyl terminus of Tar4E or Tar4Q ([23]). Equilibrium dissociation constants were essentially the same for all conditions, 190 ± 85 μM for pentapeptide alone, and 230 ± 70 and 160 ± 30 for the pentapeptide on Tar4E or Tar4Q, respectively (Table 1).
Kinetics of CheB association and dissociation with Nanodisc-embedded Tar biotinylated at L378C were determined using biolayer interferometry ([22], [23]) as measured by a BLItz instrument (ForteBio, Menlo Park, CA, USA) and described in reference. Representative time course experiments are shown in Fig. S1 in the supplemental material. Measurements for CheB-P* and CheB-P*-I were in 50 mM Tris-HCl (pH 7.5), 10% (wt/vol) glycerol, 5 mM MgCl2, 50 mM KCl, and 2% (wt/vol) bovine serum albumin (BSA). Measurements for CheB and CheBc were in the same solution plus 2 mM dithiothreitol (DTT).
Using BLItz software, response curves were fit globally to a 1:1 binding model to yield apparent association rate constants (kon) and dissociation rate constants (koff). […]
In general terms: Biolayer interferometry detects binding as a change in optical thickness at a sensor tip.

Assay [3] relates to CheB. The following applies: position 132; ref [11]; cited from earlier work.
For assay [4], the target named is unphosphorylated CheB. Particulars: equilibrium dialysis, free pentapeptide, ref [21], read-out: equilibrium dissociation constant; cited from earlier work. For orientation: In equilibrium dialysis free small molecules cross a membrane that holds back macromolecules.
Assay [5] addresses CheB. The following applies: low-activity, unphosphorylated CheB from E. coli; ref [21]; read-out: dissociation constants; cited from earlier work. An excerpt:
(§1) CheB is a two-domain protein, with an amino-terminal response regulator domain attached by a linker sequence to a carboxyl-terminal catalytic domain ([17]) (Fig. 1B). Phosphorylation of the response regulator domain by the chemotaxis histidine kinase creates a high-activity form of the methylesterase ([6]), shifting interaction between the two domains to an “open” conformation that relieves occlusion of the active site by the regulatory amino-terminal domain ([18], [19]). The enzyme binds its substrate chemoreceptor side chains with the surfaces surrounding its active site ([20]). In contrast, ...

The test system of assay [6] is CheB binding to pentapeptide. Set-up: method as in PMID 11435446. The following applies: ref [11]; cited from earlier work.
The target of assay [7] is Tar4QΔpp-6H L378C, E. coli Tar lacking the carboxyl-terminal pentapeptide, all-glutaminyl form, homodimer in Nanodiscs (E. coli) (UniProt P07017). The assay is described as follows: BLI; BLItz; biotinylated Tar homodimers in Nanodiscs held on an avidin sensor tip, CheB-P* or CheB-P*-I in solution; 50 mM Tris-HCl pH 7.5, 10% glycerol, 5 mM MgCl2, 50 mM KCl, 2% BSA, no DTT; global fit, apparent rate constants, KD calculated from kon and koff.

The target in assay [8] is Tar4EΔpp-6H L378C, E. coli Tar lacking the carboxyl-terminal pentapeptide, all-glutamyl form, homodimer in Nanodiscs (E. coli) (UniProt P07017). The description is as above.
Assay [9] addresses Tar4E L378C, E. coli aspartate chemoreceptor Tar, all-glutamyl form with carboxyl-terminal pentapeptide, homodimer in Nanodiscs (E. coli) (UniProt P07017). Described as above.
In assay [10] the target is Tar4Q L378C, E. coli aspartate chemoreceptor Tar, all-glutaminyl form with carboxyl-terminal pentapeptide, homodimer in Nanodiscs (E. coli) (UniProt P07017). The description is as above.
Assay [11] concerns the target T1, methylesterase/deamidase CheB from E. coli, low-activity, unphosphorylated form (E. coli, UniProt P07330 1-349).
T1 construct: CheB methylesterase/deamidase of E. coli, unphosphorylated, from plasmid pCW/cheB; measured with 2 mM DTT in the buffer; also called low-activity CheB; unmodified CheB; source: E. coli K-12 RP3098 with pCW/cheB, purified
T1 sequence (looked up): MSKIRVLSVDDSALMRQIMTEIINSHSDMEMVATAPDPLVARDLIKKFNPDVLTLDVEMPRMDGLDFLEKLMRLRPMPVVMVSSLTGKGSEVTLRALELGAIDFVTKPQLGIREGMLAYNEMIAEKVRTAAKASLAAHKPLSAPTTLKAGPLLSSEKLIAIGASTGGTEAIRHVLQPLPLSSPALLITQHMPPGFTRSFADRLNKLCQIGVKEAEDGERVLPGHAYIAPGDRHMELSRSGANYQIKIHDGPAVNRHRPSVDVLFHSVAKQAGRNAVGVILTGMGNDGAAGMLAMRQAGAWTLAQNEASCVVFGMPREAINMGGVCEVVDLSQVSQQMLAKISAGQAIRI
The assay is described as follows: BLI; BLItz; NWETF pentapeptide tethered to the sensor surface via a linker, CheB in solution; apparent rate constants, KD calculated from kon and koff. The following applies: both partners purified.

For assay [12] the following is noted: low-activity, unphosphorylated CheB; ref [16]; read-out: dissociation constant; cited from earlier work.
Source text: as §1

Where two headings read alike, the source gives them in different places. Ends that are not written are not given here.

NWETF [NWETF]: the Kd is 160 µM in [1], 190 ± 85 µM in assay [2], 130 µM in [4] and 130 to 160 µM in assay [5]. Also, the “protection of intact CheB from limited proteolysis” value in assay [3] is given as “protected intact CheB from limited proteolysis at position 132”.
“peptide from CheB residues 130 through 140 (AAKASLAAHKP; UniProt P07330 130-140, looked up, fragment)”: the “reduction of binding of intact enzyme to pentapeptide” value in assay [6] is listed as “reduced binding of intact enzyme to pentapeptide”.
Regarding “CheB-P*, phosphorylation mimic of Salmonella CheB D56C/C207S/C309S modified with thiophosphate (from UniProt P04042 1-349) (enzyme)”, the Kd in [7] was 200 µM; in assay [8], 200 µM; in assay [9], 13 µM; in [10], 13 µM. Also, the dwell time (1/koff) in assay [9] and in [10] was 3 s throughout.
Consider “CheB-P*-I, enzymatically inactive phosphorylation mimic, Salmonella CheB D56C/S164A/C207S/C309S modified with thiophosphate (from UniProt P04042 1-349) (enzyme)”, for which the fold reduction of KA against CheB-P* in [9] and in assay [10] was 2.5 fold throughout.

B1: NWETF pentapeptide tethered to the sensor surface via a linker (peptide)
peptide: NWETF
modifications: also: tethered to sensor surface via a linker (not described)
notes: carboxyl-terminal pentapeptide of the E. coli chemoreceptor Tar; also called pentapeptide alone
Take B1: the Kd in assay [11] was 190 µM.

B2: CheB from Pseudomonas aeruginosa (protein, UniProt O87125 1-368, looked up)
Protein-glutamate …: MAVKVLVVDDSGFFRRRVSEILSADGQIQVVGTGTNGREAIEQALALRPDVITMDYEMPLMDGITAVRNIMQRCPTPVLMFSSLTHEGARVTLDALDAGAVDYLPKNFEDISRNPDKVRQLLCEKVLTIARSNRRSISLPPLPSATSSSHAPASSSSVGASARVGAGASPAPASTSAAPKRKAYRLVAIGTSTGGPVALQRVLTQLPANFPAPLVLIQHMPAAFTKAFAERLDKLCRINVKEAEDGDILRPGLALLAPGGKQMMVDGRGTVRILPGDERLNYKPCVDVTFGSAAKAYNDKVLAVVLTGMGADGREGARLLKQGGSQVWAQDEASCVIYGMPMAVVKANLADAVYGLDDIGRHLVEACQ
With B2, the Kd in assay [12] was around 90 µM.
